One experiment has as its system rat brain synaptosomes. Conditions: binding to rat brain synaptosomes; cited from earlier work.
The conditions of experiment [1]: electrophysiological experiments; cited from earlier work.
In the next experiment the test system is DP-BB/W rats. Conditions: repeated daily administration, assayed at 110 days of age, vs vehicle; cited from earlier work.
Experiment [2] addresses T1, hKv1.3 channel (human, UniProt P22001).
Another experiment concerns the target mKv1.1 channel (Mus musculus (Mouse), UniProt P16388). The experiment can be described thus: ratio of Kd values from patch clamp, reference hKv1.3. On the technique in general: The patch-clamp technique gives a direct electrical read-out from membranes.
Another experiment has as its target hKv1.2 channel (human, UniProt P16389). The description is as above.
Experiment [3] addresses hIKCa1 channel (EGFP-tagged) (human) (UniProt O15554). Described as above.
In experiment [4] the target is T1, hKv1.3 channel. As to the kind of experiment: patch clamp on human lymphocytes (summary of the result).
Another experiment deals with hKv1.3 channels (Homo sapiens, UniProt P22001).
In experiment [5] the target is mKv1.1 channel (Mus musculus (Mouse)) (UniProt P16388).
In a further experiment the target is hKv1.2 (Homo sapiens, UniProt P16389).
For experiment [6], the target named is T1, hKv1.3 channel. The experiment can be described thus: whole-cell patch clamp; recovery of hKv1.3 current on wash-out after 3 pM Vm24.

Like-named read-outs stand apart in the source and are kept apart here. Positions of bridges follow the written chain, without caps; N, C: chain ends. No end group written: not given here.

Sequence of mKv1.1 channel (Mus musculus (Mouse)) (P16388 whole entry): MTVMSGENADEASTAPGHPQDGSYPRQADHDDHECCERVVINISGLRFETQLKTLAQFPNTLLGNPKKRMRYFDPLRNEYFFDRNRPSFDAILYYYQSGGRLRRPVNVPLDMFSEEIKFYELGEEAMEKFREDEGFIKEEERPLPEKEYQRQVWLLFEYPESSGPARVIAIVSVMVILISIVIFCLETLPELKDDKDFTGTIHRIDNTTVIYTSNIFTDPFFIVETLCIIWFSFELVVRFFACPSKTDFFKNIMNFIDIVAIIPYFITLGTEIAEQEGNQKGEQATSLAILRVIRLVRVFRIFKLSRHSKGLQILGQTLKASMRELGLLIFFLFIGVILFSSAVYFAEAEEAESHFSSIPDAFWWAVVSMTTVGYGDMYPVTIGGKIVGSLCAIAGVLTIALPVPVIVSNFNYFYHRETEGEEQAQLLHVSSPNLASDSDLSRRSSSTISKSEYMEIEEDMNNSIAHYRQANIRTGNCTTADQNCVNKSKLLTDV
Sequence of hKv1.3 channels (P22001 whole entry): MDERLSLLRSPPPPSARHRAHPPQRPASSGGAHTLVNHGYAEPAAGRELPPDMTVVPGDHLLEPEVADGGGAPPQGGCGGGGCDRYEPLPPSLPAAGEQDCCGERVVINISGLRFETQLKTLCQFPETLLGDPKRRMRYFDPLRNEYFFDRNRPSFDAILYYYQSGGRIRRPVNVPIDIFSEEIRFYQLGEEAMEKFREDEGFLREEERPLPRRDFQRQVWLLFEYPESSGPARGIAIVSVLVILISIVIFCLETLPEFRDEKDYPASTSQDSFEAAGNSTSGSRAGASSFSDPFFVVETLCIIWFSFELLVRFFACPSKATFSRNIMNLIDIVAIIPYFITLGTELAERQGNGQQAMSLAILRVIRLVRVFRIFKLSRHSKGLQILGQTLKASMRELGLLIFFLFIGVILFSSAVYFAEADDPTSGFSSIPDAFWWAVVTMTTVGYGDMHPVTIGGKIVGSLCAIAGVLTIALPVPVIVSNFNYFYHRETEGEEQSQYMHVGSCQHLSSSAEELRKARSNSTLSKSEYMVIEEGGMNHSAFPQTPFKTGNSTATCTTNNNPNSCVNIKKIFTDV
Sequence of hKv1.2 (P16389 whole entry): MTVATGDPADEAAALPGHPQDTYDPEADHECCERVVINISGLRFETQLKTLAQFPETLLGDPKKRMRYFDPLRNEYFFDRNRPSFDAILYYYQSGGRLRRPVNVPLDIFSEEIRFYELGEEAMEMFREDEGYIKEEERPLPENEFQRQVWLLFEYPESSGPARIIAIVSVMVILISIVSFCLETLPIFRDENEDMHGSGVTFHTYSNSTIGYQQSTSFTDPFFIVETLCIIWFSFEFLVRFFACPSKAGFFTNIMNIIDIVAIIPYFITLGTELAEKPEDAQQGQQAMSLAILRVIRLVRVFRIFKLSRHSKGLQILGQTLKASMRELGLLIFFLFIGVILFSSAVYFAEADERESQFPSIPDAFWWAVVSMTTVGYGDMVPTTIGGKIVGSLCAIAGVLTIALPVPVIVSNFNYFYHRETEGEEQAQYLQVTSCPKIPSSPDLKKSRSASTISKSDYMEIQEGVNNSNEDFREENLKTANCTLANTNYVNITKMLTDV
Sequence of hIKCa1 channel (EGFP-tagged) (human) (O15554 whole entry): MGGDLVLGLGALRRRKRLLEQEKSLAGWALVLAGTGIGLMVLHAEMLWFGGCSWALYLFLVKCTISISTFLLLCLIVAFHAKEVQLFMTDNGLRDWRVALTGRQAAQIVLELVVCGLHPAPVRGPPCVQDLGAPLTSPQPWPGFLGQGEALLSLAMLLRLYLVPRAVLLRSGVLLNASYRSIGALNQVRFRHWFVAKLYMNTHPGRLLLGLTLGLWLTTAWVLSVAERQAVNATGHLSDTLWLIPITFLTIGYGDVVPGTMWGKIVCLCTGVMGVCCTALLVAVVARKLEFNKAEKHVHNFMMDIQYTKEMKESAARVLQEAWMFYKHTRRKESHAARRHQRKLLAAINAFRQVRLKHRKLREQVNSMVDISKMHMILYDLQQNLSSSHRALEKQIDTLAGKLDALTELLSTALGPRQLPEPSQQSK

As for “HsTx1: toxin of the scorpion Heterometrus spinnifer, SEQ ID NO: 6”, the “activity of amidated form relative to free-carboxyl-terminal form” value in the experiment with rat brain synaptosomes was “up to 300 fold”. In addition, the “potency of amidated form relative to free-carboxyl-terminal form” value in experiment [1] is reported as 5 fold.

`O=c1ccc2c(OCCCCOc3ccccc3)c3ccoc3cc2o1` [PAP-1]: in the experiment on DP-BB/W rats, the “reduction of the fraction of rats showing symptoms of EAD” value was approximately 50%.

B1: Vm24 (peptide)
peptide: AAAISCVGSPECPPKCRAQGCKNGKCMNRKCKCYYC-NH2
modifications: disulfide 12-31, 16-33, 21-36, 6-26; N-terminus assumed
SMILES: CC[C@H](C)[C@H](NC(=O)[C@H](C)NC(=O)[C@H](C)NC(=O)[C@H](C)N)C(=O)N[C@@H](CO)C(=O)N[C@H]1CSSC[C@@H]2NC(=O)[C@H](CCCCN)NC(=O)CNC(=O)[C@H](CC(N)=O)NC(=O)[C@H](CCCCN)NC(=O)[C@@H]3CSSC[C@@H](C(N)=O)NC(=O)[C@H](Cc4ccc(O)cc4)NC(=O)[C@H](Cc4ccc(O)cc4)NC(=O)[C@@H]4CSSC[C@H](NC(=O)[C@H](CCCCN)NC(=O)[C@@H]5CCCN5C(=O)[C@@H]5CCCN5C(=O)[C@H](CSSC[C@H](NC(=O)[C@H](CCCCN)NC(=O)[C@H](CCCNC(=N)N)NC(=O)[C@H](CC(N)=O)NC(=O)[C@H](CCSC)NC2=O)C(=O)N[C@@H](CCCCN)C(=O)N4)NC(=O)[C@H](CCC(=O)O)NC(=O)[C@@H]2CCCN2C(=O)[C@H](CO)NC(=O)CNC(=O)[C@H](C(C)C)NC1=O)C(=O)N[C@@H](CCCNC(=N)N)C(=O)N[C@@H](C)C(=O)N[C@@H](CCC(N)=O)C(=O)NCC(=O)N3
As for B1, the Kd in the experiment with hKv1.3 channel [2] was 2.9 pM; with hKv1.3 channel [4] it was less than 3 pM. Besides, the “selectivity for hKv1.3 over mKv1.1” value with mKv1.1 channel was not below 10000 fold. Moreover, in the experiment with hKv1.2 channel, the “selectivity for hKv1.3 over hKv1.2” value is not below 1500 fold. In addition, the selectivity for hKv1.3 over hIKCa1 in experiment [3] was more than 4500 fold. The remaining current fraction (RCF) of whole-cell hKv1.3 current at 10 nM Vm24 in the experiment with hKv1.3 channels was found to be 0.01 RCF. The remaining current fraction (RCF) at 10 nM Vm24 in [5] was 0.8 RCF; with hKv1.2 it was 0.54 RCF. In the experiment with hKv1.3 channel [6], this molecule displayed a koff of approximately 0.00026 s⁻¹.

One may read the Kd as a measure of binding affinity in units of concentration. Lower therefore signals tighter binding. What is called koff is a measure of how fast the partners let go of each other.
